Source: IntAct's records for PubMed 21037566

Target: lef_bacan lef (UniProt P15917)

Row | Substance | effect of a mutation on the interaction
1 | Protective antigen (Bacillus anthracis) (from UniProt P13423) L216A | disrupting interaction
2 | Protective antigen (Bacillus anthracis) (from UniProt P13423) H240A | disrupting interaction
